Source: IntAct's records for PubMed 23624502

B1: Ras-related protein Rab-39A (Mus musculus), Q8BHD0 (parent)
chain: METIWIYQFRLIVIGDSTVGKSCLLHRFTQGRFPGLHSPACDPTVGVDFFSRLLEIEPGKRIKLQLWDTAGQERFRSITRSYYRNSVGGFLVFDITNRRSFEHVKDWLEEAKMHVQPFQIVFLLVGHKCDLASQRQVSREEAERLSTDCGMKYIETSAKDATNVEESFTILTRDIYELIKKGEICIQDGWEGVKSGFVPNTVHSSEEAVKPRKECFC
partner: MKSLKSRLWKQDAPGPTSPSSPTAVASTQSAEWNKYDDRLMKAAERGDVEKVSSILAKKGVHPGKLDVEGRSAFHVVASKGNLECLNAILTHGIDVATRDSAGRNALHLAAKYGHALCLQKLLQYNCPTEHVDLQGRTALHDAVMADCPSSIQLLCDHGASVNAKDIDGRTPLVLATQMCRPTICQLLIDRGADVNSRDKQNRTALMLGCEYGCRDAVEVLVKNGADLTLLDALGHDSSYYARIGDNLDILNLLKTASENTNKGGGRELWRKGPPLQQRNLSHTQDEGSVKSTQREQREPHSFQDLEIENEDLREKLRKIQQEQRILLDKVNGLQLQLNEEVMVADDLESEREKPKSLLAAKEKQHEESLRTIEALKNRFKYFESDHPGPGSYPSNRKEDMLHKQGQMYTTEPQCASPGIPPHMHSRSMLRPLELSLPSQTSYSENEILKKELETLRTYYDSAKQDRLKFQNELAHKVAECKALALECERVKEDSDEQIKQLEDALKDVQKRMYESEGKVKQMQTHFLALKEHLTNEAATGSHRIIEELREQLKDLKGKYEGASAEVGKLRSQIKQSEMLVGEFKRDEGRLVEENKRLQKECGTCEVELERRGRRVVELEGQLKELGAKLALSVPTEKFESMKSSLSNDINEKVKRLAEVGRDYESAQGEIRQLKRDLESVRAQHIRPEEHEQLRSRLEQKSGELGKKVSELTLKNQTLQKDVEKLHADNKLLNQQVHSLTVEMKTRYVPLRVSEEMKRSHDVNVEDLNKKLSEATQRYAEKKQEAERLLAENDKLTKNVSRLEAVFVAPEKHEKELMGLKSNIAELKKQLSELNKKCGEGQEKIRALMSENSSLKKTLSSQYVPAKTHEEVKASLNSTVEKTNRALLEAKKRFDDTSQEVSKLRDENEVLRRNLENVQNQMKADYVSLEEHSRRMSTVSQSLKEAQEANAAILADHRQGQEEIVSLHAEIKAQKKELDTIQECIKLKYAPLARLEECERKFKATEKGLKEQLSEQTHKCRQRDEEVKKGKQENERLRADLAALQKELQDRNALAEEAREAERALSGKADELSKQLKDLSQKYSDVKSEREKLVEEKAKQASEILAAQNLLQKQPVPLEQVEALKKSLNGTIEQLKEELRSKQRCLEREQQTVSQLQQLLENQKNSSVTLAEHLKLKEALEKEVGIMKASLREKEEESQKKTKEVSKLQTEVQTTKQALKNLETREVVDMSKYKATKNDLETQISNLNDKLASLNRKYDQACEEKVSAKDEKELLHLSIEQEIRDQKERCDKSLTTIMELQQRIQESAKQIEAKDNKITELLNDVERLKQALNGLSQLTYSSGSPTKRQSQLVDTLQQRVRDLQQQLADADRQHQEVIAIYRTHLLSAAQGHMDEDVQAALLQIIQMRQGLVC
B2: Ras-related protein Rab-39B (Mus musculus), Q8BHC1 (parent)
chain: MEAIWLYQFRLIVIGDSTVGKSCLIRRFTEGRFAQVSDPTVGVDFFSRLVEIEPGKRIKLQIWDTAGQERFRSITRAYYRNSVGGLLLFDITNRRSFQNVHEWLEETKVHVQPYQIVFVLVGHKCDLDTQRQVTRHEAEKLAAAYGMKYIETSARDAINVEKAFTDLTRDIYELVKRGEITIQEGWEGVKSGFVPNVVHSSEEVIKSERRCLC
partner: B1 partner

How the values were obtained:
Conditions in all cases: with Uaca
Uaca, Q8CGB3-3 [1] = variants of: B1
Uaca, Q8CGB3-3 [2] = variants of: B1; remark: listed apart in the source
Uaca, Q8CGB3-3 [3] = variants of: B2; remark: listed apart in the source
Uaca, Q8CGB3-3 [4] = variants of: B2; remark: listed apart in the source

effect of a mutation on the interaction (Uaca, Q8CGB3-3 [1])	effect of a mutation on the interaction (Uaca, Q8CGB3-3 [2])	effect of a mutation on the interaction (Uaca, Q8CGB3-3 [3])	effect of a mutation on the interaction (Uaca, Q8CGB3-3 [4])	Variant
disrupting interaction	decreasing interaction	–	–	METIWIYQFRLIVIGDSTVGKNCLLHRFTQGRFPGLHSPACDPTVGVDFFSRLLEIEPGKRIKLQLWDTAGQERFRSITRSYYRNSVGGFLVFDITNRRSFEHVKDWLEEAKMHVQPFQIVFLLVGHKCDLASQRQVSREEAERLSTDCGMKYIETSAKDATNVEESFTILTRDIYELIKKGEICIQDGWEGVKSGFVPNTVHSSEEAVKPRKECFC [S22N]
–	–	disrupting interaction	decreasing interaction	MEAIWLYQFRLIVIGDSTVGKNCLIRRFTEGRFAQVSDPTVGVDFFSRLVEIEPGKRIKLQIWDTAGQERFRSITRAYYRNSVGGLLLFDITNRRSFQNVHEWLEETKVHVQPYQIVFVLVGHKCDLDTQRQVTRHEAEKLAAAYGMKYIETSARDAINVEKAFTDLTRDIYELVKRGEITIQEGWEGVKSGFVPNVVHSSEEVIKSERRCLC [S22N]
